Experimental data from article PMC5148593, “Using the Amino Acid Network to Modulate the Hydrolytic Activity of β-Glycosidases” (PLoS ONE, 2016).

Substrate: O=[N+]([O-])c1ccc(O[C@@H]2O[C@H](CO)[C@@H](O)[C@H](O)[C@H]2O)cc1
Experiment: purified protein
Assay type: biochemical, Spodoptera frugiperda
Conditions: 100 mM sodium citrate-sodium phosphate pH 6.0, 30°C

B1: Sfβgly (Spodoptera frugiperda) (protein)
chain: QQRRFPDDFLFGTATASYQIEGAWDEDGKGENIWDYMVHNTPEVIRDLSNGDIAADSYHNYKRDVEMMRELGLDAYRFSLSWARILPTGMANEVNPAGIAFYNNYIDEMLKYNITPLITLYHWDLPQKLQELGGFANPLISDWFEDYARVVFENFGDRVKMFITFNEPREICFEGYGSATKAPILNATAMGAYLCAKNLVTAHAKAYYLYDREFRPVQGGQCGITISVNWFGPATPTPEDEMAAELRRQGEWGIYAHPIFSAEGGFPKELSDKIAEKSAQQGYPWSRLPEFTEEEKAFVRGTSDLIGVNHYTAFLVSATERKGPYPVPSLLDDVDTGSWADDSWLKSASAWLTLAPNSIHTALTHLNNLYNKPVFYITENGWSTDESRENSLIDDDRIQYYRASMESLLNCLDDGINLKGYMAWSLMDNFEWMEGYIERFGLYEVDFSDPARTRTPRKAAFVYKHIIKHRVVDYEYEPETMVMTIDEGH
notes: kinetics: gene in pAE plasmid, E. coli NovaBlue (DE3), Ni-NTA purified (His tag kept); mature protein 21-509 (borders printed for the P. pastoris pPIC9 crystal construct, 5CG0, glycosylated at N206); monomer-dimer equilibrium
Km: 2300 µM | kcat: 0.61 s⁻¹
